Source: PMC8769072, “Proteome‐scale mapping of binding sites in the unstructured regions of the human proteome” (Molecular Systems Biology, 2022)
One block for each binder: values may come before it. Where no end group is shown, it is not given here. [ ]: non-standard residue; d: D form. The star is where a group is joined. FITC = O=C1OC2(c3ccc(O)cc3Oc3cc(O)ccc32)c2ccc(NC(=S)*)cc21; pS = N[C@@H](COP(=O)(O)O)C(=O)O

What was measured:
[1] = target: SFN 14-3-3 (14-3-3 protein sigma) (human) (UniProt P31947); assay: fluorescence polarisation; competition: unlabelled peptide in serial dilution against the protein domain (master mix at four times the KD) with its FITC-labelled probe peptide; 50 mM KPO4 or NaPO4 pH 7.5; Ki calculated from IC50
[2] = target: SFN 14-3-3 (14-3-3 protein sigma) (human) (UniProt P31947); assay: fluorescence polarisation; direct saturation binding: protein in serial dilution, FITC-labelled probe peptide fixed (master mix 10 nM probe, 2 mM DTT); 50 mM KPO4 or NaPO4 pH 7.5; quadratic fit
[3] = target: KEAP1 Kelch (kelch-like ECH-associated protein 1, Kelch domain) (human) (UniProt Q14145); assay: fluorescence polarisation; competition: unlabelled peptide in serial dilution against the protein domain (master mix at four times the KD) with its FITC-labelled probe peptide; 50 mM KPO4 or NaPO4 pH 7.5; Ki calculated from IC50
[4] = target: KEAP1 Kelch domain, MBP-tagged (human) (UniProt Q14145); assay: fluorescence polarisation; competition: unlabelled peptide in serial dilution against FITC-labelled probe peptide and protein (master mix with protein at four times the KD), 50 mM KPO4 pH 7.5; sigmoidal dose-response fit, KI
[5] = target: KPNA4 ARM, MBP‐tagged domain, for affinity measurements (human); assay: fluorescence polarisation; competition on MBP-tagged KPNA4 ARM: unlabelled peptide in serial dilution displaces FITC-Myc 320-328 (probe for the major pocket) or FITC-NCOR2 1307-1322 (probe for the minor pocket); 50 mM KPO4 pH 7.5; triplicates
[6] = target: KPNB1 HEAT (importin subunit beta-1, HEAT repeat) (human) (UniProt Q14974); assay: fluorescence polarisation; direct saturation binding: protein in serial dilution, FITC-labelled probe peptide fixed (master mix 10 nM probe, 2 mM DTT); 50 mM KPO4 or NaPO4 pH 7.5; quadratic fit
[7] = target: KPNA4 ARM (importin subunit alpha-3, armadillo repeat domain) (human) (UniProt O00629); assay: as above
[8] = target: TLN1 PTB (talin-1, phosphotyrosine binding-like domain) (human) (UniProt Q9Y490); assay: as above
[9] = target: MDM2 SWIB, cleaved from the His‐GST tag, for affinity measurements (human); assay: fluorescence polarisation; competition: unlabelled peptide in serial dilution displaces a FITC-labelled probe peptide from the bait domain (master mix with protein at four times the KD of the probe, 10 nM probe, 2 mM DTT); 50 mM KPO4 or NaPO4 pH 7.5; triplicates; probe for KEAP1 Kelch: FITC-NFE2L1 228-243, other probes in Dataset EV6

IC50 [1]: 1970 µM
Binder: Ac-NEPTTPSWLADIPPWVP-NH2 [MAP1A 1831-1847 peptide]

Kd [2]: 524 µM
Binder: {FITC}-QRST[pS]TPNVH-NH2 [FITC-RAF phosphopeptide probe]

IC50 [3]: 4430 µM | Ki [3]: 1470 µM | Ki [4]: 1470 µM
Binder: PPLPPPPLPPAPSLPY [ATF5 128-143 peptide]

fold loss of affinity against the wild-type peptide [5]: 10 fold
Binder: KCRRQRQDQTLELVGL [NKX2‐5_(192–207) K194R mutant peptide, synthetic, P52952 192-207]

Kd [6]: 106 µM
Binder: {FITC}-VATFVFGQSS-NH2 [FITC-NUP153 1223-1232 probe peptide]

Kd [7]: 0.03 µM
Binder: {FITC}-PAAKRVKLD [FITC-Myc 320-328 probe peptide]

IC50 [3]: 490 µM | Ki [3]: 162 µM | Ki [4]: 162 µM
Binder: YMQHLQEQQQQQMHLQ [TREF1 332-347 peptide]

Kd [7]: 0.23 µM
Binder: {FITC}-PKRTYDMMEGRVGRAI [FITC-NCOR2 1307-1322 probe peptide]

Kd [8]: 0.15 µM
Binder: {FITC}-FPTDERSWVYSPLHYS-NH2 [FITC-PIP5K1C 640-655 probe peptide]

Ki [9]: 0.17 µM
Binder: THFAELWGHLDHTMFF [RNF115_(69–84) peptide, synthetic]
